In patent EP4628512A1 (Innovent Biologics (Suzhou) Co., Ltd., dated 2025):

T1: human Ang2 (Beijing Sino Biological) (human, UniProt O15123 19-496, limits assumed)
T1 construct: Antigen of the BLI and SPR experiments; also called angiopoietin 2; ANGPT2
T1 sequence (looked up): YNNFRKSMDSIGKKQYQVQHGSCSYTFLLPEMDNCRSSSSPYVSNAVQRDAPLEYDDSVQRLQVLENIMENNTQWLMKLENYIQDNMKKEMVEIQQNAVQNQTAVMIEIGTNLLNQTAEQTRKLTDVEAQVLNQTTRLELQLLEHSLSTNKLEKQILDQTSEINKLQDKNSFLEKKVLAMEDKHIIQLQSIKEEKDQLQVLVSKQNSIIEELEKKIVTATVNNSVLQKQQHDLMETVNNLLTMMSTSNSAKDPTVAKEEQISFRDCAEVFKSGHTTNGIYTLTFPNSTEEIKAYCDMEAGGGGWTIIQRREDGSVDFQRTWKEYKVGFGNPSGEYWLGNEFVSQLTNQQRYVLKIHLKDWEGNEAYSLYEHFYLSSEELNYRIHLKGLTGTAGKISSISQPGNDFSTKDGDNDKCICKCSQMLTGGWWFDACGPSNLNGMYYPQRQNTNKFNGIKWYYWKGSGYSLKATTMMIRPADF

T2: human VEGFC (R&D) (human, UniProt P49767 103-227)
T2 construct: also called hVEGFC; recombinant human VEGFC protein
T2 sequence (looked up): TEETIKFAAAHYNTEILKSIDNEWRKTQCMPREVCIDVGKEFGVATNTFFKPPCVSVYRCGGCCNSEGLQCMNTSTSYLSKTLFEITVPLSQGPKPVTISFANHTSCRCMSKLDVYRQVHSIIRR

B1: IAR044-030 (other)
chain: EVQLLESGGGLVQPGGSLRLSCAASGFALDYYAIGWFRQAPGKGLEGVSCISSGEGSTYYADSVKGRFTISRDNSKNTVYLQMNSLRAEDTAVYYCATDSRGDDVACEGLRRNEYDYWGQGTLVTVSSGGGGGGGGGGSDTGRPFVEMYSEIPEIIHMTEGRELVIPCRVTSPNITVTLKKFPLDTLIPDGKRIIWDSRKGFIISNATYKEIGLLTCEATVNGHLYKTNYLTHRQTNTIIDVVLSPSHGIELSVGEKLVLNCTARTELNVGIDFNWEYPSSKHQHKKLVNRDLKTQSGSEMKKFLSTLTIDGVTRSDQGLYTCAASSGLMTKKNSTFVRVHEKESKYGPPCPPCPPCGGGGGGGGGGEVQLVESGGGLVQPGGSLRLSCAASGSSFSPYAMGWYRQAPGKQRELVSATSEGGFTLYADSVKGRFTISRDNSKNTVYLQMNSLRAEDTAVYYCYMHWRGSDPENYWGQGTQVTVSS
notes: No Fc; also called anti-VEGFA/VEGFC/Ang2 multi-specific fusion protein
B2: IAR044-038 (other)
chain: SDTGRPFVEMYSEIPEIIHMTEGRELVIPCRVTSPNITVTLKKFPLDTLIPDGKRIIWDSRKGFIISNATYKEIGLLTCEATVNGHLYKTNYLTHRQTNTIIDVVLSPSHGIELSVGEKLVLNCTARTELNVGIDFNWEYPSSKHQHKKLVNRDLKTQSGSEMKKFLSTLTIDGVTRSDQGLYTCAASSGLMTKKNSTFVRVHEKEPKSSPPCPPCPAPCGGGGGGGGGGEVQLLESGGGLVQPGGSLRLSCAASGFALDYYAIGWFRQAPGKGLEGVSCISSGEGSTYYADSVKGRFTISRDNSKNTVYLQMNSLRAEDTAVYYCATDSRGDDVACEGLRRNEYDYWGQGTLVTVSSGGGGGGGGGGEVQLVESGGGLVQPGGSLRLSCAASGSSFSPYAMGWYRQAPGKQRELVSATSEGGFTLYADSVKGRFTISRDNSKNTVYLQMNSLRAEDTAVYYCYMHWRGSDPENYWGQGTQVTVSS
notes: Trispecific fusion protein: VEGFA mini-Trap, hinge linker, anti-Ang2 VHH, linker, anti-VEGFC VHH
B3: IAR044-032 (other)
chain: EVQLLESGGGLVQPGGSLRLSCAASGFALDYYAIGWFRQAPGKGLEGVSCISSGEGSTYYADSVKGRFTISRDNSKNTVYLQMNSLRAEDTAVYYCATDSRGDDVACEGLRRNEYDYWGQGTLVTVSSGGGGGGGGGGSDTGRPFVEMYSEIPEIIHMTEGRELVIPCRVTSPNITVTLKKFPLDTLIPDGKRIIWDSRKGFIISNATYKEIGLLTCEATVNGHLYKTNYLTHRQTNTIIDVVLSPSHGIELSVGEKLVLNCTARTELNVGIDFNWEYPSSKHQHKKLVNRDLKTQSGSEMKKFLSTLTIDGVTRSDQGLYTCAASSGLMTKKNSTFVRVHEKEKTHTCPPCPPCGGGGGGGGGGEVQLVESGGGLVQPGGSLRLSCAASGSSFSPYAMGWYRQAPGKQRELVSATSEGGFTLYADSVKGRFTISRDNSKNTVYLQMNSLRAEDTAVYYCYMHWRGSDPENYWGQGTQVTVSS
notes: as for B1
B4: IAR044-040 (other)
chain: SDTGRPFVEMYSEIPEIIHMTEGRELVIPCRVTSPNITVTLKKFPLDTLIPDGKRIIWDSRKGFIISNATYKEIGLLTCEATVNGHLYKTNYLTHRQTNTIIDVVLSPSHGIELSVGEKLVLNCTARTELNVGIDFNWEYPSSKHQHKKLVNRDLKTQSGSEMKKFLSTLTIDGVTRSDQGLYTCAASSGLMTKKNSTFVRVHEKEKTHTCPPCPPCGGGGGGGGGGEVQLLESGGGLVQPGGSLRLSCAASGFALDYYAIGWFRQAPGKGLEGVSCISSGEGSTYYADSVKGRFTISRDNSKNTVYLQMNSLRAEDTAVYYCATDSRGDDVACEGLRRNEYDYWGQGTLVTVSSGGGGGGGGGGEVQLVESGGGLVQPGGSLRLSCAASGSSFSPYAMGWYRQAPGKQRELVSATSEGGFTLYADSVKGRFTISRDNSKNTVYLQMNSLRAEDTAVYYCYMHWRGSDPENYWGQGTQVTVSS
notes: as for B2
B5: IAR044-039 (other)
chain: SDTGRPFVEMYSEIPEIIHMTEGRELVIPCRVTSPNITVTLKKFPLDTLIPDGKRIIWDSRKGFIISNATYKEIGLLTCEATVNGHLYKTNYLTHRQTNTIIDVVLSPSHGIELSVGEKLVLNCTARTELNVGIDFNWEYPSSKHQHKKLVNRDLKTQSGSEMKKFLSTLTIDGVTRSDQGLYTCAASSGLMTKKNSTFVRVHEKESKYGPPCPPCPPCGGGGGGGGGGEVQLLESGGGLVQPGGSLRLSCAASGFALDYYAIGWFRQAPGKGLEGVSCISSGEGSTYYADSVKGRFTISRDNSKNTVYLQMNSLRAEDTAVYYCATDSRGDDVACEGLRRNEYDYWGQGTLVTVSSGGGGGGGGGGEVQLVESGGGLVQPGGSLRLSCAASGSSFSPYAMGWYRQAPGKQRELVSATSEGGFTLYADSVKGRFTISRDNSKNTVYLQMNSLRAEDTAVYYCYMHWRGSDPENYWGQGTQVTVSS
notes: as for B2

Tests used:
[1] = target: T1, human Ang2 (Beijing Sino Biological); assay: SPR (Biacore T200), CM5 chip, bivalent binding, 1:1 binding model
human VEGF165 (R&D) [2] = target: T3, human VEGF165 (R&D) (human, UniProt P15692-4 27-191); assay: BLI (ForteBio), bivalent binding, 30 C
T3 construct: also called VEGFA; human VEGFA

human VEGF165 (R&D) [3] = target: T3, human VEGF165 (R&D); assay: SPR (Biacore T200), CM5 chip, 1:1 binding model
human VEGFC (R&D) [4] = target: T2, human VEGFC (R&D); assay: BLI (ForteBio), bivalent binding, 30 C
[5] = target: T1, human Ang2 (Beijing Sino Biological); assay: BLI (ForteBio), bivalent binding, 30 C
human VEGF165 (R&D) [6] = target: T3, human VEGF165 (R&D); assay: BLI (ForteBio), bivalent binding, 30 C; * beyond the limit of detection
human VEGFC (R&D) [7] = target: T2, human VEGFC (R&D); assay: SPR (Biacore T200), CM5 chip, bivalent binding, 1:1 binding model
human VEGFC (R&D) [8] = target: T2, human VEGFC (R&D); assay: BLI (ForteBio), bivalent binding, 30 C; * beyond the limit of detection
[9] = target: T1, human Ang2 (Beijing Sino Biological); assay: as above

T3 sequence (P15692 other isoform, or with tags, fused parts or gaps limits assumed): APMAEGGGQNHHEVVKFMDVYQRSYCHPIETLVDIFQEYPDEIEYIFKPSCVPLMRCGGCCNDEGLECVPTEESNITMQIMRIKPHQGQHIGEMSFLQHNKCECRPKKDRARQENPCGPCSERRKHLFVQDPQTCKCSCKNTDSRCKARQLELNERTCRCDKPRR

Binder	Kd [1]	koff [1]	kon [1]	Kd (human VEGF165 (R&D) [2])	kon (human VEGF165 (R&D) [2])	Kd (human VEGF165 (R&D) [3])	koff (human VEGF165 (R&D) [3])	kon (human VEGF165 (R&D) [3])	Kd (human VEGFC (R&D) [4])	kon (human VEGFC (R&D) [4])	Kd [5]	kon [5]	koff (human VEGF165 (R&D) [6])	Kd (human VEGFC (R&D) [7])	koff (human VEGFC (R&D) [7])	kon (human VEGFC (R&D) [7])	koff (human VEGFC (R&D) [8])	koff [9]	koff (human VEGF165 (R&D) [2])	koff [5]	other results
B1	0.00932 nM	1.76e-05 s⁻¹	1.89e+06 M⁻¹ s⁻¹	≤ 0.515 nM	389000 M⁻¹ s⁻¹	0.151 nM	6.01e-05 s⁻¹	399000 M⁻¹ s⁻¹	≤ 1.04 nM	193000 M⁻¹ s⁻¹	≤ 0.206 nM	973000 M⁻¹ s⁻¹	≤ 0.0002 s⁻¹	< 0.234 nM	< 1e-05 s⁻¹	42800 M⁻¹ s⁻¹	≤ 0.0002 s⁻¹	≤ 0.0002 s⁻¹			
B2				0.668 nM	450000 M⁻¹ s⁻¹				≤ 0.92 nM	217000 M⁻¹ s⁻¹	0.475 nM	597000 M⁻¹ s⁻¹					≤ 0.0002 s⁻¹		0.0003 s⁻¹	0.000283 s⁻¹	
B3	0.012 nM	1.92e-05 s⁻¹	1.63e+06 M⁻¹ s⁻¹	≤ 0.517 nM	387000 M⁻¹ s⁻¹	0.203 nM	7.75e-05 s⁻¹	382000 M⁻¹ s⁻¹	≤ 1.01 nM	197000 M⁻¹ s⁻¹	≤ 0.22 nM	908000 M⁻¹ s⁻¹	≤ 0.0002 s⁻¹	< 0.276 nM	< 1e-05 s⁻¹	36200 M⁻¹ s⁻¹	≤ 0.0002 s⁻¹	≤ 0.0002 s⁻¹			
B4				0.609 nM	481000 M⁻¹ s⁻¹				0.885 nM	236000 M⁻¹ s⁻¹	0.783 nM	652000 M⁻¹ s⁻¹							0.000293 s⁻¹	0.00051 s⁻¹	koff (human VEGFC (R&D) [4]): 0.000209 s⁻¹
B5				0.582 nM	468000 M⁻¹ s⁻¹				1.01 nM	225000 M⁻¹ s⁻¹	0.705 nM	606000 M⁻¹ s⁻¹							0.000272 s⁻¹	0.000427 s⁻¹	koff (human VEGFC (R&D) [4]): 0.000227 s⁻¹
